# Residue numbers refer to the chain shown, from its start.
# B1: PR001992 (bispecific antibody, human IgG1, kappa, L234A L235A)
# chain 1: EVQLLESGGGLVQPGGSLRLSCAASGFTFNTYAMNWVRQAPGKGLEWVSRIRSKYNNYATYYADSVKDRFTISRDDSKSTLYLQMNSLRAEDTAVYYCVRHGNFGNSYVSWFAYWGQGTLVTVSSRTVAAPSVFIFPPSDEQLKSGTASVVCLLNNFYPREAKVQWKVDNALQSGNSQESVTEQDSKDSTYSLSSTLTLSKADYEKHKVYACEVTHQGLSSPVTKSFNRGEC
# chain 2: QAVVTQEPSLTVSPGGTVTLTCRSSTGAVTTSNYANWVQQKPGQAPRGLIGGTNKRAPWTPARFSGSLLGDKAALTLLGAQPEDEAEYFCALWYSNLWVFGGGTKLTVLSSASTKGPSVFPLAPSSKSTSGGTAALGCLVKDYFPEPVTVSWNSGALTSGVHTFPAVLQSSGLYSLSSVVTVPSSSLGTQTYICNVNHKPSNTKVDKKVEPKSCDKTHTCPPCPAPEAAGGPSVFLFPPKPKDTLMISRTPEVTCVVVDVSHEDPEVKFNWYVDGVEVHNAKTKPREEQYNSTYRVVSVLTVLHQDWLNGKEYKCKVSNKALGAPIEKTISKAKGQPREPQVYTLPPCREEMTKNQVSLWCLVKGFYPSDIAVEWESNGQPENNYKTTPPVLDSDGSFFLYSKLTVDKSRWQQGNVFSCSVMHEALHNHYTQKSLSLSPGK
# chain 3: EVQLVETGGGLIQPGGSLRLSCAASGFPVSSNYMSWVRQAPGKGLEWVSVIFSGGRTYYADSVKGRFTISRDNSKNTLYLQMNSLRAEDTAVYYCARRNWIDGRDAFDIWGQGTMVTVSSASEPKSSDKTHTCPPCPAPEAAGGPSVFLFPPKPKDTLMISRTPEVTCVVVDVSHEDPEVKFNWYVDGVEVHNAKTKPREEQYNSTYRVVSVLTVLHQDWLNGKEYKCKVSNKALGAPIEKTISKAKGQPREPQVCTLPPSREEMTKNQVSLSCAVKGFYPSDIAVEWESNGQPENNYKTTPPVLDSDGSFFLVSKLTVDKSRWQQGNVFSCSVMHEALHNHYTQKSLSLSPGK
# notes: Structure 12 (Fab(cross VH/VL)-Fc-VH): CD3 Fab from PR000511, BCMA VH from PR000943; IgG1 knob/hole, AAG
# B2: PR001994 (bispecific antibody, human IgG1, kappa, L234A L235A)
# chain 1: B1 chain 1
# chain 2: B1 chain 2
# chain 3: EVQLVETGGGLIQPGGSLRLSCAASGFTVSDNYMTWVRQAPGKGLEWVSVIFSGGNTYYADSVKGRFTISRDNAKNTLYLQMNSLRAEDTALYYCARRNYDDTRGTDVFDIWGQGTMVTVSSASEPKSSDKTHTCPPCPAPEAAGGPSVFLFPPKPKDTLMISRTPEVTCVVVDVSHEDPEVKFNWYVDGVEVHNAKTKPREEQYNSTYRVVSVLTVLHQDWLNGKEYKCKVSNKALGAPIEKTISKAKGQPREPQVCTLPPSREEMTKNQVSLSCAVKGFYPSDIAVEWESNGQPENNYKTTPPVLDSDGSFFLVSKLTVDKSRWQQGNVFSCSVMHEALHNHYTQKSLSLSPGK
# notes: Structure 12 (Fab(cross VH/VL)-Fc-VH): CD3 Fab from PR000511, BCMA VH from PR001046; IgG1 knob/hole, AAG
# B3: PR001993 (bispecific antibody, human IgG1, kappa, L234A L235A)
# chain 1: B1 chain 1
# chain 2: B1 chain 2
# chain 3: B1 chain 3 with P28T, S35T, R56S, N99I, W100A, I101V, D102A, R104H, A106V
# notes: Structure 12 (Fab(cross VH/VL)-Fc-VH): CD3 Fab from PR000511, BCMA VH from PR001035; IgG1 knob/hole, AAG
# B4: PR001991 (bispecific antibody, human IgG1, kappa, L234A L235A)
# chain 1: B1 chain 1
# chain 2: B1 chain 2
# chain 3: EVQLLESGGGLVQPGGSLRLSCAASGFTFSSYAMIWVRQAPGKGLEWVSGISESGGSTYYADSVKGRFTISRDNSKNTLYLQMNSLRAEDTAVYFCVKDLDDILTGYYKDYWGQGTLVTVSSASEPKSSDKTHTCPPCPAPEAAGGPSVFLFPPKPKDTLMISRTPEVTCVVVDVSHEDPEVKFNWYVDGVEVHNAKTKPREEQYNSTYRVVSVLTVLHQDWLNGKEYKCKVSNKALGAPIEKTISKAKGQPREPQVCTLPPSREEMTKNQVSLSCAVKGFYPSDIAVEWESNGQPENNYKTTPPVLDSDGSFFLVSKLTVDKSRWQQGNVFSCSVMHEALHNHYTQKSLSLSPGK
# notes: CD3 Fab from PR000511, BCMA VH from PR000940; IgG1 knob/hole, AAG
# B5: PR002002 (bispecific antibody, IgG1)
# chain 1: QAVVTQEPSLTVSPGGTVTLTCRSSTGAVTTSNYANWVQQKPGQAPRGLIGGTNKRAPWTPARFSGSLLGDKAALTLLGAQPEDEAEYFCALWYSNLWVFGGGTKLTVLGGGQSGQGGSGGGGSEVQLVESGGGLVQPGGSLKLSCAASGFTFNTYAMNWVRQASGKGLEWVGRIRSKYNNYATYYADSVKDRFTISRDDSKSTLYLQMNSLKTEDTAVYYCVRHGNFGNSYVSWFAYWGQGTLVTVSSASEPKSSDKTHTCPPCPAPEAAGGPSVFLFPPKPKDTLMISRTPEVTCVVVDVSHEDPEVKFNWYVDGVEVHNAKTKPREEQYNSTYRVVSVLTVLHQDWLNGKEYKCKVSNKALGAPIEKTISKAKGQPREPQVYTLPPCREEMTKNQVSLWCLVKGFYPSDIAVEWESNGQPENNYKTTPPVLDSDGSFFLYSKLTVDKSRWQQGNVFSCSVMHEALHNHYTQKSLSLSPGK
# chain 2: B2 chain 3
# notes: Structure 20 (scFv(VL-VH)-Fc-VH): CD3 scFv from PR000510, BCMA VH from PR001046; IgG1 knob/hole, AAG
# B6: PR002000 (bispecific antibody, IgG1)
# chain 1: B5 chain 1
# chain 2: B1 chain 3
# notes: Structure 20 (scFv(VL-VH)-Fc-VH): CD3 scFv from PR000510, BCMA VH from PR000943; IgG1 knob/hole, AAG
# B7: PR001995 (bispecific antibody, IgG1)
# chain 1: EVQLLESGGGLVQPGGSLRLSCAASGFTFNTYAMNWVRQAPGKGLEWVSRIRSKYNNYATYYADSVKDRFTISRDDSKSTLYLQMNSLRAEDTAVYYCVRHGNFGNSYVSWFAYWGQGTLVTVSSASTKGPSVFPLAPSSKSTSGGTAALGCLVKDYFPEPVTVSWNSGALTSGVHTFPAVLQSSGLYSLSSVVTVPSSSLGTQTYICNVNHKPSNTKVDKKVEPKSC
# chain 2: QAVVTQEPSLTVSPGGTVTLTCRSSTGAVTTSNYANWVQQKPGQAPRGLIGGTNKRAPWTPARFSGSLLGDKAALTLLGAQPEDEAEYFCALWYSNLWVFGGGTKLTVLGQPKAAPSVTLFPPSSEELQANKATLVCLISDFYPGAVTVAWKADSSPVKAGVETTTPSKQSNNKYAASSYLSLTPEQWKSHRSYSCQVTHEGSTVEKTVAPTECSDKTHTCPPCPAPEAAGGPSVFLFPPKPKDTLMISRTPEVTCVVVDVSHEDPEVKFNWYVDGVEVHNAKTKPREEQYNSTYRVVSVLTVLHQDWLNGKEYKCKVSNKALGAPIEKTISKAKGQPREPQVYTLPPCREEMTKNQVSLWCLVKGFYPSDIAVEWESNGQPENNYKTTPPVLDSDGSFFLYSKLTVDKSRWQQGNVFSCSVMHEALHNHYTQKSLSLSPGK
# chain 3: B4 chain 3
# notes: as for B4
# B8: PR001996 (bispecific antibody, IgG1)
# chain 1: B7 chain 1
# chain 2: B7 chain 2
# chain 3: B1 chain 3
# notes: Structure 13 (Fab(cross Fd/LC)-Fc-VH): CD3 Fab from PR000511, BCMA VH from PR000943; IgG1 knob/hole, AAG
# B9: PR001998 (bispecific antibody, IgG1)
# chain 1: B7 chain 1
# chain 2: B7 chain 2
# chain 3: B2 chain 3
# notes: Structure 13 (Fab(cross Fd/LC)-Fc-VH): CD3 Fab from PR000511, BCMA VH from PR001046; IgG1 knob/hole, AAG
# B10: PR001999 (bispecific antibody, IgG1)
# chain 1: B5 chain 1
# chain 2: B4 chain 3
# notes: IgG1 knob/hole, AAG
# B11: PR001997 (bispecific antibody, IgG1)
# chain 1: B7 chain 1
# chain 2: B7 chain 2
# chain 3: B1 chain 3 with P28T, S35T, R56S, N99I, W100A, I101V, D102A, R104H, A106V
# notes: Structure 13 (Fab(cross Fd/LC)-Fc-VH): CD3 Fab from PR000511, BCMA VH from PR001035; IgG1 knob/hole, AAG
# Target: T1, human CD3 (TCR/CD3 complex) on human T cells (human, UniProt P07766 23-207)
# T1 construct: whole, on cells
# Assay: flow cytometry (FACS) on human T cells, Experiment 1
# Method: (§1) The binding ability of the antibody molecules to human or cynomolgus monkey T cells was tested by flow cytometry FACS. […] The T cell density was adjusted to 1×10⁶ cells/mL. […] The cells were incubated at 4° C. for 1 h away from light. Then, the cells in each well were rinsed twice with 100 μL of pre-cooled PBS, and centrifuged at 500 g at 4° C. for 5 min, and then the supernatant was discarded. […] The cells in each well were rinsed twice with 100 μL of pre-cooled PBS, and centrifuged at 500 g at 4° C. for 5 min, and then the supernatant was discarded. Finally, the cells in each well were resuspended in 200 μL of pre-cooled PBS. Fluorescence signal values were read using a BD FACS CANTOII flow cytometer or an ACEA NovoCyte flow cytometer, and the data were processed and analyzed using FlowJo v10 (FlowJo, LLC) software. The data were processed and analyzed by plotting using GraphPad Prism 8 software, and binding curves of the antibodies to target cells, EC₅₀ values and other parameters were obtained through four-parameter nonlinear fitting.
# T1 sequence (P07766 23-207, one chain of several): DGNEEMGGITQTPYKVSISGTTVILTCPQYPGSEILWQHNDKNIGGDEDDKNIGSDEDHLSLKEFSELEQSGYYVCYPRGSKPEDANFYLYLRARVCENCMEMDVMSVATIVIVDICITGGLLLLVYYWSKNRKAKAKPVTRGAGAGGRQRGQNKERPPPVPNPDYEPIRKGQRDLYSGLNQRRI
row,Binder,Maximum MFI
1,B1,2240 MFI
2,B2,3380 MFI
3,B3,4780 MFI
4,B4,3240 MFI

# Target: T1, human CD3 (TCR/CD3 complex) on human T …
# Assay: flow cytometry (FACS) on human T cells, Experiment 2
# Method: as §1
row,Binder,Maximum MFI
1,B5,1120 MFI
2,B6,1730 MFI
3,B7,2920 MFI
4,B8,3440 MFI
5,B9,3320 MFI
6,B10,1170 MFI
7,B11,4460 MFI

# Source: US20230322953A1 (HARBOUR BIOMED SHANGHAI, published 2023)
